The DeepSol protein solubility set

Test: soluble on expression in E. coli; label from the status in PepcDB or PDB records

Row | Sequence | soluble on expression in E. coli
1 | MPKTQGLSPESLISQFARCEEGWCVQYHDVILASAFQPVISITHKRVVGYEALVRATDANNAQISPDTLFARAQARGETILLDRLTRCLHVANFSEQDTGSCWLFLNVLPQMFDAGIAPSVFIEALCAHFALPPTRVVLEVIEQPSRNEPALARTLDMIQHGDFLIAVDDFGTGFSNFDRIWQIKPDIVKLDRSILERSLAASDAHRIVHHLVTMLHHAGTMVLAEGVENEDALQILMDADVDFVQGFCFGLPDPSLERARRAAPARIETAWQRFAERVKERRGDVVHPGFDTIERIVLAGAADYAQARDLRGAAQRLLTNPIVRRVFVAEANGEQVEPSVTNETPDTPSATTRRLAPLLPELHCNWSRRAYFQRAVAAPGRVALMGPHFSLTDGRDCYTAAVAIHLGTTLKVFCVDFDFSSYGDGQ | not soluble
2 | MPLGLLWLGLALLGALHAQAQDSTSDLIPAPPLSKVPLQQNFQDNQFQGKWYVVGLAGNAILREDKDPQKMYATIYELKEDKSYNVTSVLFRKKKCDYAIATFVPGSQPGEFTLGNIKSYPGLTSYLVRVVSTNYNQHAMVFFKKVSQNREYFKITLYGRTKELTSELKENFIRFSKSLGLPENHIVFPVPIDQCIDG | soluble
3 | MPLHHLTRFPRLEFIGAPTPLEYLPRLSDYLGREIYIKRDDVTPIAMGGNKLRKLEFLVADALREGADTLITAGAIQSNHVRQTAAVAAKLGLHCVALLENPIGTTAENYLTNGNRLLLDLFNTQIEMCDALTDPDAQLQTLATRIEAQGFRPYVIPVGGSSALGAMGYVESALEIAQQCEEVVGLSSVVVASGSAGTHAGLAVGLEHLMPDVELIGVTVSRSVAEQKPKVIALQQAIAGQLALTATADIHLWDDYFAPGYGVPNDAGMEAVKLLASLEGVLLDPVYTGKAMAGLIDGISQKRFNDDGPILFIHTGGAPALFAYHPHV | not soluble
4 | MPLPPHLSDRVVALQPSLTLAISARAKALQQEGRDICSLSAGEPDFNTPEFIIDATVKALRDGITRYGPAAGDPELREAIATKLSKENTVPTNAEQVLVTNGGKQAIFNLFQVILNPGDEVLIPAPYWLSYPEMARLAGAKVTTLPSTPENGFCLDLNNLEASIGPKTRLLLLNSPGNPTGRVMARKELETLADLLRDHPQILVMSDEIYEFILEEGQQHYSFSAIAPDLSNRTFIVNGFAKGWAMTGWRLGYLAGPADAVKAATALQSQSTSNVCSFAQRGALAALQGSRECVKKMVKSYNTRRELLTSGLLSLEGMSLVPPKGAFYAFPKLPPESLDSVSFCEQALENHGLAMVPGAAFGDDSCVRLTCAVSPETICDGLERLRKALKQS | not soluble
5 | MPLVSMKEMLIDAKENGYAVGQYNINNLEFTQAILEASQEENAPVILGVSEGAARYMSGFYTIVKMVEGLMHDLNITIPVAIHLDHGSSFEKCKEAIDAGFTSVMIDASHSPFEENVATTKKVVEYAHEKGVSVEAELGTVGGQEDDVVADGIIYADPKECQELVEKTGIDALAPALGSVHGPYKGEPKLGFKEMEEIGLSTGLPLVLHGGTGIPTKDIQKAIPFGTAKINVNTENQIASAKAVRDVLNNDKEVYDPRKYLGPAREAIKETVKGKIKEFGTSNRAK | not soluble
6 | MPNCPNCQKPVYFAERVSSLGKDWHRPCLKCANKACGKTLSAGSHSEHEGKPYCNRCYGALFGPKGYGHGGTESHTFLQGTTGN | soluble
7 | MPNLNAVIAQNISKGDVIWVPYRKDPMWPALVNNAYPKKVSYSFFPLAPGVDETKRSRFSCAPKLTYALVTTEPLPENANSDLKKAHRAACEYLSSNGKTRGSNIQSLGEAAGGSEKMKKMNGEVTKNKTGKPEKRKKKVDSEQQENEEDDEDLMSPVSKKPSSSERSTPSGSQQQPPITEEQSKSMMKMIDDRFEVLINEIWKSDEVAQSKNQTMKDKMTIKLKNNQFLKESDYDIVFERIFNFIRMQNPSLSFISTFNITSSHIIPHILITCYSACRNLDYQTSKEIFYQLNTRVLGLDSSMSIPVTDHLEELCRLACDESDAIQILENEHGDKISKDGTATQTRGNVFEEMR | not soluble
8 | MPNVVGVQFQKAGKLEYYAPNQLDVEVGDWVVVQSKRGIEIGHVKFPLREVDVEDVTLPLKNIIRKMNEDDQETYYRNERDANDALELCKKVVKDQQLDMRLVNCEYTLDKSKVIFNFTADDRIDFRKLVKVLAQNLKTRIELRQIGVRDEAKLLGGIGPCGRSLCCSTFLGDFEPVSIKMAKDQNLSLNPTKISGACGRLMCCLKYENDYYEEARTQLPDVGDMIQTPDGHGKVIGLNILDISMQVKIEGLEQPLEYKMEEIEVLNLEHHHHHH | not soluble
9 | MPNYRGRHQTRQNWSSKPREEHSPSKGAYRDKIWSGPVSEVARQQTVYDWVTTGAYSLGSPDSWPSYPDEIILMNESRNAQTSRMSRRSATPGPRLSQDRRTRTTAPAVAPIPFQRAQPRVEVERQRIDEPVAQDLIIDDGNGTNNSNDSSICGFVEESEELVYPQWVYYLYPLIPTAPNCNNEKSYKEGGNWYNSP | not soluble
10 | MPPFYKRLHRKKDGRELFLYGLMPLEGPPLPEDAEPFRPAPHLRYHPLRGEWVVYAAHRQGRTFLPPKEHCPLCPSREGGFPTEIPFPSFQVAVFENRFPSFVEEAPPPPEGLPVPAGRALGRCEVVVYTPAHTGSLATLTEEERLLLAWAWRDRYEALYALPGVRFVMPFENRGEAVGVTLHHPHGQIYAYPFVPPVLERESQAFRERPVLLRLFPSLGPYVVDEEEGFLAFVPPFARYPFEVWVAPVERHPGPWTFSEGEMAAFARLLGRVVARYDALFGEPFPYVMVFHAAPLGEEATFHFHVEFYPPRRTRDKLKFLAGTELGAGTFVVDALPEETAKALRAALP | soluble
11 | MPPGKKGQASSLGQNKVHFHKYNLILLPPDTISSHSSEERGLLWKHRLSQARTSYSSHVRILVRIRKMWEKTPHMRIGNIFFKKREL | not soluble
12 | MPPQPQIMVDLQMEQVMPNPDLKNIARLISQDPGLSGALLKLVNSPFFGLANRITSIQRAVNLLGSRSVINLINAQSIKGEMSDDTIVTLNRFWDTAQDVAMSCLSLAKRIGYESVDEAYALGLFHNCGIPLMLKRFPHYMAVLEEAYAAASDERRVVDTENRVLNTNHAVVGYYTARSWRLPEHVCEAIANHHNALSIFGDESARDTQLKNLLAILKMAEHICGSHRVLGNQPEDHEWNSIGALVLDYVGLTDYDFENLKGSILELGVGQGSY | not soluble
13 | MPPRRYNPDTRRDELLERINLDIPGAVAQALREDLGGTVDANNDITAKLLPENSRSHATVITRENGVFCGKRWVEEVFIQLAGDDVTIIWHVDDGDVINANQSLFELEGPSRVLLTGERTALNFVQTLSGVASKVRHYVELLEGTNTQLLDTRKTLPGLRSALKYAVLCGGGANHRLGLSDAFLIKENHIIASGSVRQAVEKASWLHPDAPVEVEVENLEELDEALKAGADIIMLDNFETEQMREAVKRTNGKALLEVSGNVTDKTLREFAETGVDFISVGALTKHVQALDLSMRFR | soluble
14 | MPQINTVPGPHLRRQVWLRTKSGQRLAYAVSWWDASHVDEYLQNRSLPIWDSLSRLHTELYRDIQAIYCGHNRTLAKAFGQEGPFWGRHYLFWHDRKPLTLIYEIFSPYLSRYLGELPRPKFELEHHHHHH | not soluble
15 | MPRDPLIGIVGKPSSGKSTTLNSLTDAGAAVGAFPFTTIEPNQATGYLQVECACSRFGKEDLCKPNYGWCSKGKRHIPIKLLDVAGLVPGAHSGRGLGNKFLDDLRHADALIHVVDVSGTTDAEGKNTRGYDPLNDIEWLQDEIRLWVEGNLKKRWGSIVRKHTATKSSIVDTLQAQFGGYGSHAPMIQKALDRLKGLPPLEKWDDEWITRVVKSFMMEKFPTVLALNKIDHPDADKNVSKIMLKYPDTKAVLTSAVTEVFLRKLKKQGFILYEEGTEFVDTFEDEPDKLKPLDDKILNRIENIRDLVLYRFGSTGVVQVLQAATDILGLIPVYTVKNIQTFTGGNGTNVFRDCFLVKRGTPVGKVARYIMGGEVTIASIETVGGVRVSEESLVEPGKNDILGFKIAPRSA | soluble
16 | MPRIEDRLINRTPRNFTIIGNSPNSMSRGKRPHTTPIEVHLLREGIIESQHWAEATVYDDRGRVLMLAGDSTSNAFIRSSLKPFQALAVTSTGTMERYGLTDKDLAIMCGSHQGTIEQARQVFNILWRADIEPQALQCPIPAGQESPLYHGCSGKHAGMLAVCQQQDWPLHSYLQQNSPIQKLILSKVADLLGMPGAELIAAHDDCGAPTYTMELGQIAHLYALLASGQQLGLERVARAMTYYPYFVAGEGCFDTELMQQMEGELVSKSGAEGVQCVGRVGEGLGLAIKVKDGSKRAKYAVAIHLLQQMGWIPPQVAETLSEKFVRLGKYKRLEVIGELAMLLEHHHHHH | not soluble
17 | MPRKAREYPEEGEFVVATVKRIHNYGAFLELDEYPGKEAFMHISEVASTWVRNIRDYLKEGQKVVAKVIRVDPRKGHIDLSLRRVTQQQRKAKLQEFKRAQKAENLLRLAAEKLGKDFEAAWREVWVPLEEEWGEVYAAFEDAAKDGIEVLKGHVPDEWLPVLKEIVENYVEVPTVTIDAEFEITVPKPNGVEIIKEALIRARDRANKEKDIEVKFTYQGAPRYRIDITAPDYYKAEEVLEDIAEEILRVIKQAGGEATLLRKEKRIRKVKKRKK | soluble
18 | MPRSFLVKKHFNASKKPNYSELDTHTVIISPYLYESYSMPVIPQPEILSSGAYSPITVWTTAAPFHAQLPNGLSPLSGYSSSLGRVSPPPPSDTSSKDHSGSESPISDEEERLQSKLSDPHAIEAEKFQCNLCNKTYSTFSGLAKHKQLHCDAQSRKSFSCKYCDKEYVSLGALKMHIRTHTLPCVCKICGKAFSRPWLLQGHIRTHTGEKPFSCPHCNRAFADRSNLRAHLQTHSDVKKYQCKNCSKTFSRMSLLHKHEESGCCVAH | not soluble
19 | MPRTIWSGAISFGLVTVPIHVVSATEDHSVRFHQYHLEDMGRVRVRKYCELEDREVTQDEIGKGYELSKDTVIPVLDEELRELPLPTAKAIEIEAFVPLASIDPMGIGEGYYLQPDGQVAAKPYKLLRQALERSSKVAVAKYAWSGRERLGMLRVREEAIVLHAMRWPDEIRD | not soluble
20 | MPSSIICDVSHEGEASGGPSPSSRISNGFSHTVCDLHHNFPIVKNRRKYHNSISTQSSSSTTTSLERISTSTCTSTSSSASDAIISRAEKDVQTFLVSDESTTGDHEEEEEDDEDGDDESDHNDYDYEDDGERSEHDHEQTDNDDDEDEIEPFVSSWCFAMGTQRSVMSSVGEKAPKSNVKSMEDWELDVVERAHRESHLAELYADLSWRFYTHPPTSFCLARVFLRHGLTGNEGVSSWKLPRKANRRNSSCSSISSVSESSSPSALDESTLTKILPTDNFRGGRGFASPSPPTSLLSEPLSRMDVLSEKIWDYHNKVSQTDEMLQRKLHLRDMLYTAISPVFPLSGLYVVGSSLNGFGNNSSDMDLCLMITNKDLDQKNDAVVVLNLILSTLQYEKFVESQKLILAKVPILRINFAAPFDDITVDLNANNSVAIRNTHLLCYYSSYDWRVRPLVSVVKEWAKRKGINDANKSSFTSYSLVLMVIHFLQCGPTKVLPNLQQSYPNRFSNKVDVRTLNVTMALEEVADDIDQSLSEKTTLGELLIGFLDYYANEFNYDRDAISIRQGRRVERAALAVRPKIHSNSEGDKETPPPSSSASTSSIHNGGTPGIPMHHSISNPHFWRSQWRCVCIEEPFTNSNTAHSIYDEMVFEAIKKAFREAHGELQHNHDLDKLMECEPIKASTTNTGAAVFAATYEGERPLAQQPNTIACASLRVLNSIPVSSGPGHYHYQQQSNQNLSRPQRPGSNQGYQMNNNRGFNGNNQQQHQNRRSFNNQSSSNPGNGSTGPRSSRSNENVRDSSRQQNSQKGSSGVSVSKENVASTTGVPVDKKQQNSNRKDDGNRTKRSPMVQSPEPAKTKSEKTPMASSNVSQ | not soluble
